Experiment [1] concerns the target T1, PLP (myelin proteolipid protein) peptide on I-A^s (mouse, 3rd amino acid from the N terminus substituted from cysteine to serine; contains the serine-substituted epitope of SEQ ID NO: 20).
T1 peptide: RVSHSLGKWLGHPDKF
The experiment is described as follows: activation reporter or marker. As for the experimental part:
The cultured cells were collected, and the 2E5 reporter T cells were stained with an APC-labeled anti-CD45 antibody (clone name: 30-F11, eBioscience). Then, the stained 2E5 reporter cells were analyzed by flow cytometry so as to determine the proportion of the GFP-positive cells in the CD45-positive cells. As Control 1, the proportion of the GFP-positive cells in the CD45-positive cells was analyzed in the same manner, except that the above-described medium was added instead of the IgG antibody.

Experiment [2] has as its target T2, Hen egg lysozyme (HEL) peptide on I-A^k (mouse).
T2 peptide: DGSTDYGILQINSR
The experiment is described as follows: binding, other.

Experiment [3] deals with Hen egg lysozyme (HEL) peptide on I-A^k (mouse). Briefly: binding, other. This is another data set of the same source.
Target sequence in this assay (peptide, as listed by the source): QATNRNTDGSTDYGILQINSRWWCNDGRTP

B1: 2E5 TCR (TCR, V domains shown)
Valpha: GEKVEQHQSTLSVREGDSAVINCTYTDTASSYFPWYKQEAGKSLHFVIDIRSNVDRKQSQRLTVLLDKKAKRFSLHITATQPEDSAIYFCAASPGANTGKLTFGHGTILRVHP
Vbeta: VAGVTQTPRYLVKEEGQKAHMSCSPEKGHTAFYWYQQNQKQELTFLINFRNEEIMEQTDLVKKRFSAKCSSNSQCILEILSSEEDDSALYLCASSLVRGNSDYTFGSGTRLLVI
In the case of B1, in experiment [1], the binding result was “recognises”.

B2: 3A9 TCR (TCR, V domains shown)
Valpha: AQSVTQPDARVTVSEGASLQLRCKYSYSGTPYLFWYVQYPRQGLQLLLKYYSGDPVVQGVNGFEAEFSKSNSSFHLRKASVHWSDSAVYFCALNSGGSNAKLAFGKGSKLSVKS
Vbeta: AVTQSPRNKVAVTGGKVTLSCNQTNNHNNMYWYRQDTGHGLRLIHYSYGAGSTEKGDIPDGYKASRPSQENFSLILELATPSQTSVYFCASGDESALPELYFGEGSKLTVL
Take B2: the binding result in experiment [2] and in experiment [3] was “recognises” in each case.
